# Laboratory results published in patent US20220227830A1, “QD DOSING OF GIP RECEPTOR AGONIST PEPTIDE COMPOUNDS AND USES THEREOF” (Takeda Pharmaceutical Company Limited, priority 2020, published 2022).
# Starred links: 1 amine or outer side, 2 acyl side, 3 side chain; linkers in the order of their positions; H or OH if unused. Non-standard residues stand in square brackets, D forms with d. Groups on a side chain read outwards from the residue. No end group written: not given here. *: point of attachment. 2OEGgE = O=C(CC[C@H](N[*:1])C(=O)O)NCCOCCOCC(=O)NCCOCCOCC(=O)[*:2]; G2E3 = linker of 2 Gly and 3 Glu (read GGEEE); C16 diacid = O=C(O)CCCCCCCCCCCCCCC(=O)*; C15 diacid = O=C(O)CCCCCCCCCCCCCC(=O)*; γGlu = O=C(O)[C@H](CCC(=O)[*:2])N[*:1]; NMeY = CN[C@@H](Cc1ccc(O)cc1)C(=O)O; AEEA = NCCOCCOCC(=O)O; Aib = CC(C)(N)C(=O)O
# T1: full-length human GIPR with an N-terminal FLAG tag (human, UniProt P48546 22-466)
# T1 sequence (looked up): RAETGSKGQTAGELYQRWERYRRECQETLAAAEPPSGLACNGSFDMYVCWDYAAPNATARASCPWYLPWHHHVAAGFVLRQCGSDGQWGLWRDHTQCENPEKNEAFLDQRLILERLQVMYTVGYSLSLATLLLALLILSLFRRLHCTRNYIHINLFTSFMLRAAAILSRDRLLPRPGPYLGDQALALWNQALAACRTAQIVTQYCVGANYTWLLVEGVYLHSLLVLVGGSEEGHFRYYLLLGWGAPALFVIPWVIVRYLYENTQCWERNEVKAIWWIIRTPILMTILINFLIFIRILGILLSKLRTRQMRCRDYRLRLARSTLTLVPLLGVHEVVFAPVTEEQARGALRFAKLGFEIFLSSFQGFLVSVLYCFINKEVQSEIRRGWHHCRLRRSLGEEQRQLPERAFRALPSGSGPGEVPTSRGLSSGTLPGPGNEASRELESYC
# B1: Compound 75 (peptide)
# peptide: [NMeY][Aib]EGTFISDYSIALDR[Aib]K([2OEGgE-C15 diacid])Q[Aib]DFVNWLLAQRPSSGAPPPS-NH2
# modifications: N-terminus assumed
# SMILES: CC[C@H](C)[C@H](NC(=O)[C@H](CO)NC(=O)[C@H](Cc1ccc(O)cc1)NC(=O)[C@H](CC(=O)O)NC(=O)[C@H](CO)NC(=O)[C@@H](NC(=O)[C@H](Cc1ccccc1)NC(=O)[C@@H](NC(=O)CNC(=O)[C@H](CCC(=O)O)NC(=O)C(C)(C)NC(=O)[C@H](Cc1ccc(O)cc1)NC)[C@@H](C)O)[C@@H](C)CC)C(=O)N[C@@H](C)C(=O)N[C@@H](CC(C)C)C(=O)N[C@@H](CC(=O)O)C(=O)N[C@@H](CCCNC(=N)N)C(=O)NC(C)(C)C(=O)N[C@@H](CCCCNC(=O)COCCOCCNC(=O)COCCOCCNC(=O)CC[C@H](NC(=O)CCCCCCCCCCCCCC(=O)O)C(=O)O)C(=O)N[C@@H](CCC(N)=O)C(=O)NC(C)(C)C(=O)N[C@@H](CC(=O)O)C(=O)N[C@@H](Cc1ccccc1)C(=O)N[C@H](C(=O)N[C@@H](CC(N)=O)C(=O)N[C@@H](Cc1c[nH]c2ccccc12)C(=O)N[C@@H](CC(C)C)C(=O)N[C@@H](CC(C)C)C(=O)N[C@@H](C)C(=O)N[C@@H](CCC(N)=O)C(=O)N[C@@H](CCCNC(=N)N)C(=O)N1CCC[C@H]1C(=O)N[C@@H](CO)C(=O)N[C@@H](CO)C(=O)NCC(=O)N[C@@H](C)C(=O)N1CCC[C@H]1C(=O)N1CCC[C@H]1C(=O)N1CCC[C@H]1C(=O)N[C@@H](CO)C(N)=O)C(C)C
# B2: Compound 76 (peptide)
# peptide: [NMeY][Aib]EGTFISDYSIALDR[Aib]K([AEEA-AEEA-γGlu-C15 diacid])Q[Aib]DFVNWLLAQSPSSGAPPPS-NH2
# modifications: N-terminus assumed
# SMILES: CC[C@H](C)[C@H](NC(=O)[C@H](CO)NC(=O)[C@H](Cc1ccc(O)cc1)NC(=O)[C@H](CC(=O)O)NC(=O)[C@H](CO)NC(=O)[C@@H](NC(=O)[C@H](Cc1ccccc1)NC(=O)[C@@H](NC(=O)CNC(=O)[C@H](CCC(=O)O)NC(=O)C(C)(C)NC(=O)[C@H](Cc1ccc(O)cc1)NC)[C@@H](C)O)[C@@H](C)CC)C(=O)N[C@@H](C)C(=O)N[C@@H](CC(C)C)C(=O)N[C@@H](CC(=O)O)C(=O)N[C@@H](CCCNC(=N)N)C(=O)NC(C)(C)C(=O)N[C@@H](CCCCNC(=O)COCCOCCNC(=O)COCCOCCNC(=O)CC[C@H](NC(=O)CCCCCCCCCCCCCC(=O)O)C(=O)O)C(=O)N[C@@H](CCC(N)=O)C(=O)NC(C)(C)C(=O)N[C@@H](CC(=O)O)C(=O)N[C@@H](Cc1ccccc1)C(=O)N[C@H](C(=O)N[C@@H](CC(N)=O)C(=O)N[C@@H](Cc1c[nH]c2ccccc12)C(=O)N[C@@H](CC(C)C)C(=O)N[C@@H](CC(C)C)C(=O)N[C@@H](C)C(=O)N[C@@H](CCC(N)=O)C(=O)N[C@@H](CO)C(=O)N1CCC[C@H]1C(=O)N[C@@H](CO)C(=O)N[C@@H](CO)C(=O)NCC(=O)N[C@@H](C)C(=O)N1CCC[C@H]1C(=O)N1CCC[C@H]1C(=O)N1CCC[C@H]1C(=O)N[C@@H](CO)C(N)=O)C(C)C
# B3: Compound 51 (peptide)
# peptide: Y[Aib]EGTFISDYSIAKDR[Aib]AQ[Aib]NFVNWLLAQSPSSGAPPPS-OH
# modifications: not fully specified (residues 1, 14); also: Me-Tyr methyl position not given here
# B4: Compound 68 (peptide)
# peptide: YXEGTFISDYSIALDRXHQXDFVNWLLAQSPSSGAPPPS
# modifications: not fully specified; Me-Tyr1; Aib 2,20; Km17 = Lys(linker printed 'GS'-C15DA); C-term NH2
# Key:
# [1] = target: T1, full-length human GIPR with an …; assay: cell-based or functional assay
# [2] = target: full-length human GLP-1R with an N-terminal FLAG tag (human, UniProt P43220 24-463); assay: cell-based or functional assay
Binder,"Human GIPR cAMP, HEK293T EC50 [1] [nM]",Human GLP1R cAMP HEK293T EC50 [2] [nM]
B1,0.0011,1000
[NMeY][Aib]EGTFISDYSIALDR[Aib]K([G2E3-C15 diacid])Q[Aib]NFVNWLLAQSPSSGAPPPS-OH (not fully specified) [Compound 55],0.0002,240
B2,0.0005,295
[NMeY][Aib]EGTFISDYSIALDRKHQ[Aib]NFVNWLLAQSPSSGAPPPS-NH2 (not fully specified (residue 17)) [Compound 64],0.0005,1000
B3,0.0003,1000
[NMeY][Aib]EGTFISDYSIALDR[Aib]K([G5gE-C15 diacid])Q[Aib]NFVNWLLAQSPSSGAPPPS-NH2 [Compound 71],0.0006,955
[NMeY][Aib]EGTFISDYSIALDRIHQK([AEEA-AEEA-γGlu-C15 diacid])NFVNWLLAQK (also: Me-Tyr methyl position not given here) [Compound 5],0.0008,955
[NMeY][Aib]EGTFISDYSIAK([G4-γGlu-C15 diacid])DR[Aib]AQ[Aib]NFVNWLLAQSPSSGAPPPS-NH2 [Compound 78],0.0003,112
[NMeY][Aib]EGTFISDYSIALDRK([G2E3-C15 diacid])AQ[Aib]NFVNWLLAQSPSSGAPPPS-OH (also: Me-Tyr methyl position not given here) [Compound 53],0.0001,617
[NMeY]GEGTFISDYSIAK([2OEGgE-C16 diacid])DRIHQ[Aib]NFVNWLLAQK (not fully specified) [Compound 6],0.0537,692
[NMeY][Aib]EGTFISDYSIALDRKHQ[Aib]NFVNWLLAQSPSSGAPPPS-NH2 (not fully specified (residue 17)) [Compound 65],0.0003,129
[NMeY]SEGTFISDYSIAK([2OEG-γGlu-C16 diacid])DRIHQ[Aib]NFVNWLLAQK (not fully specified (N-terminus)) [Compound 7],0.0016,257
[NMeY][Aib]EGTFISDYSIALDR[Aib]AQ[Aib]NFVNWLLAQK([OEGgEgE-C15 diacid])PSSGAPPPS-NH2 [Compound 70],0.0009,91.2
[NMeY][Aib]EGTFISDYSIALDRIHQK([AEEA-AEEA-γGlu-C16 diacid])NFVNWLLAQK (not fully specified) [Compound 4],0.0005,692
[NMeY][Aib]EGTFISDYSIALDR[Aib]AQ[Aib]NFVNWLLAQKPSSGAPPPS-OH (not fully specified (residue 30)) [Compound 52],0.0003,240
[NMeY][Aib]EGTFISDYSIALDR[Aib]K([G5gE-C15 diacid])Q[Aib]DFVNWLLAQSPSSGAPPPS-NH2 [Compound 74],0.0004,550
[NMeY][Aib]EGTFISDYSIAKDR[Aib]AQ[Aib]NFVNWLLAQRPSSGAPPPS-NH2 (not fully specified (residue 14)) [Compound 77],0.0002,331
[NMeY][Aib]EGTFISDYSIALDR[Aib]K([G5gE-C15 diacid])Q[Aib]DFVNWLLAQRPSSGAPPPS-NH2 [Compound 73],0.0005,1000
[NMeY][Aib]EGTFISDYSIALDRKHQ[Aib]NFVNWLLAQRPSSGAPPPS-NH2 (not fully specified (residue 17)) [Compound 63],0.0002,141
"YXEGTFISDYSIALDRXHQXDFVNWLLAQRPSSGAPPPS (not fully specified; Me-Tyr1; Aib 2,20; Km17 = Lys(gEgE-C15DA); C-term NH2) [Compound 66]",0.0004,1000
B4,0.0007,200
"YXEGTFISDYSIALDRXHQXDFVNWLLAQSPSSGAPPPS (not fully specified; Me-Tyr1; Aib 2,20; Km17 = Lys(gE-C15DA); C-term NH2) [Compound 69]",0.0004,1000
"YXEGTFISDYSIALDRXHQXDFVNWLLAQRPSSGAPPPS (not fully specified; Me-Tyr1; Aib 2,20; Km17 = Lys(gE-C15DA); C-term NH2) [Compound 67]",0.0006,525
"Y[Aib]EGTFISDYSI[Aib]KDR[Aib]AQ[Aib]NFVNWLLAQRPSSGAPPPS-OH (not fully specified (residues 1, 14)) [Compound 56]",0.0003,263
